Publication PMC7846786, “DutaFabs are engineered therapeutic Fab fragments that can bind two targets simultaneously” (Nature Communications, 2021)

How the values were obtained:
Conditions in all cases: both partners purified
human VEGFA-121 [1] = molecular target: T1, human VEGFA-121 (Homo sapiens, UniProt P15692); assay: SPR; affinities of the Fab fragments used in the in-vivo study for human and rat VEGF-A121, expressed as KD (nM); who was immobilised and the conditions not given
T1 construct: homodimer
T1 sequence (P15692 other isoform, or with tags, fused parts or gaps): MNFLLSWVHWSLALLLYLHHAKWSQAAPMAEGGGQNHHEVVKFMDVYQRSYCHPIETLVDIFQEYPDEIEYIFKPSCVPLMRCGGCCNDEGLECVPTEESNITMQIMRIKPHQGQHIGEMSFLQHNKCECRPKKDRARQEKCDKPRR

rat VEGF-A121 = molecular target: T2, rat VEGF-A121 (Rattus norvegicus, UniProt P16612-4, strain); assay: as above
T2 construct: The homodimer is stated for VEGFA in general

PDGF-BB [2] = molecular target: T3, PDGF-BB (Homo sapiens, UniProt P01127); assay: kinetic exclusion assay (KinExA); in solution; 4 h pre-incubation of 50 pM DutaFab with 244 fM-4 nM PDGF-BB, or of 100 pM DutaFab with 122 fM-2 nM VEGFA-121; duplicate 1:2 titration series; 25 °C
T3 construct: platelet-derived growth factor subunit B, human, recombinant; homodimer PDGF-BB; as I recall, the commercial protein is the 109-residue mature B chain (residues 82-190 of the precursor); also called recombinant human PDGF-BB; source: 100-13A is printed for crystallization) and from R&D Systems
T3 sequence (P01127 82-190): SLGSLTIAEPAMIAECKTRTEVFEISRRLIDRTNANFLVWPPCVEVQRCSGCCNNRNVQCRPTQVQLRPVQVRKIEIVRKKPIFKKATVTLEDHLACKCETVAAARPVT

human VEGFA-121 [3] = molecular target: T1, human VEGFA-121; assay: as above
PDGF-BB [4] = molecular target: T3, PDGF-BB; assay: as above; remark: listed apart in the source
[5] = molecular target: T4, recombinant human VEGFA-121 (Homo sapiens, strain); assay: ELISA; IC50 competition ELISA: rhVEGFR-1-Fc (1 µg/mL) or rhPDGFRβ-Fc (0.5 µg/mL) coated; ligand (5 pM VEGFA-165, 8 pM VEGFA-121 or 5 pM PDGF-BB) pre-incubated 1.5 h with 1:2 dilutions of Fab in PBS, 0.1% Tween-20, 1% BSA; 10 min on the plate at RT; free ligand detected with biotinylated anti-hVEGF or anti-hPDGF-BB goat IgG; 4-parameter fit
T4 construct: homodimer; Two suppliers are named for different experiments; also called VEGFA dimer; source: bought: Peprotech (catalog number 100-20A; panning, crystallisation); bought: Humanzyme (ELISAs)
T4 chain: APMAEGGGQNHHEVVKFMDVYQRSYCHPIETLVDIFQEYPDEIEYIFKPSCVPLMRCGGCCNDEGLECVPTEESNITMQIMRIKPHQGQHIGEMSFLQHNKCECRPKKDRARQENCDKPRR

[6] = molecular target: T5, recombinant human VEGFA-165 (Homo sapiens, UniProt P15692-4, strain); assay: as above
T5 construct: homodimer; source: bought: Humanzyme
T5 sequence (P15692 whole entry, looked up, change not shown): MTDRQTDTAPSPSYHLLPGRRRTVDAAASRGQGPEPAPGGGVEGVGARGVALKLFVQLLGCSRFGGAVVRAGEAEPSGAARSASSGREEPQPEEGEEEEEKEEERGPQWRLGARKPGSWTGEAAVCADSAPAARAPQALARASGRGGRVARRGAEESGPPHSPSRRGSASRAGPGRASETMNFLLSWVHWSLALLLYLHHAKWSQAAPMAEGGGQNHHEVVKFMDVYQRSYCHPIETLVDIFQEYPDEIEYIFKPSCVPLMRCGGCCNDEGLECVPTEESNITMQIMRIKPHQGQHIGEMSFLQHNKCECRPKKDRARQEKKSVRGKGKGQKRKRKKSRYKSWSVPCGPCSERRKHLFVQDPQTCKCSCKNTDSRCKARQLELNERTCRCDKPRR

[7] = molecular target: T6, recombinant human PDGF-BB (human, UniProt P01127); assay: as above
T6 construct: platelet-derived growth factor subunit B, human; homodimer; Two suppliers and two Peprotech catalogue numbers are printed; also called PDGF-BB dimer; source: bought: R&D Systems (ELISAs); bought: Peprotech (catalog number 100-14B for panning; 100-13A printed for crystallisation)
T6 sequence (P01127 82-190): as the sequence (P01127 82-190) above

| Binder | Kd (human VEGFA-121 [1]) | Kd (rat VEGF-A121) | Kd (PDGF-BB [2]) | Kd (human VEGFA-121 [3]) | Kd (PDGF-BB [4]) | IC50 [5] | IC50 [6] | IC50 [7] |
| --- | --- | --- | --- | --- | --- | --- | --- | --- |
| DutaFab VP mat YHE (Fab, V domains shown, human CH1 constant domain, as the heavy chain of Dm1 (PDB 6T9D, 6T9E); that R108 may be the first residue of the UniProt entry, so it must not be doubled; Co-operativity variant of Dm1; the PDB entries hold the parent VP mat; also called clone VP mat YHE; source: periplasmatic expression in E. coli or HEK Expi293 cells, purified (kappa select, then cation exchange or SEC)) VH: DLQLVESGGGLVKPGGSLRLSCAADGWWFGYTDMSWVRQAPGKGLEWVGSISYKGGSTYYNTKFIGRFTISRDDDTNTLYLQMNSLRAEDTAVYYCARDDGYFDTWGQGTLVTVSS VL: AIYMHQEPSSLSASVGDRVTITCHGSYWLSNYLAWYQQKPGKAPKLLIYDGKEREHGVPSRFSGSGSHEDYTLTISSLQPEDFATYYCQQYRYHPYTFGHGTKVEIK | 5 pM | 0.043 nM | 4.02 pM | 3.23 pM | 6 pM |  |  |  |
| DutaFab clone VP (initial bispecific DutaFab against VEGFA and PDGF-BB) (Fab, V domains shown, human VH3 scaffold with CH1; H-side paratope against PDGF-BB; human Vk1 scaffold with Ck; L-side paratope against VEGFA; Bispecific Fab with two paratopes in one Fv; also called DutaFab VP; original bispecific DutaFab VP; source: periplasmic expression in E. coli or HEK Expi293 cells, purified (kappa select, then cation exchange or SEC)) VH: EEQLVESGGGLVQPGGSLRLSCAASGWWFEYTDMSWVRQAPGQGLEWVGSISPSGGSTYYNTNFIGRFTISRDDSKNTLYLQMNSLRDEDTAVYYCARDEGYFDEWGQGTLVTVSS VL: AIQMTQSPSSLSASVGDRVTITCQASYWLHKYLAWYQQKPGQAPKLLIYDASELEYGVPDRFSGSGSGTDFTLTISSLEPEDFAVYYCQNYRYHPYTFGQGTKLEIK |  |  |  |  |  | 0.894 nM | 0.023 nM | 21 nM |
